Molecular target: recombinant MARK2, expressed in E. coli (Rattus norvegicus (Rat)) (UniProt O08679)
Experiment: cell-based or functional assay

Chain of recombinant MARK2, expressed in E. coli (Rattus norvegicus (Rat)) (O08679 1-722, tags left off): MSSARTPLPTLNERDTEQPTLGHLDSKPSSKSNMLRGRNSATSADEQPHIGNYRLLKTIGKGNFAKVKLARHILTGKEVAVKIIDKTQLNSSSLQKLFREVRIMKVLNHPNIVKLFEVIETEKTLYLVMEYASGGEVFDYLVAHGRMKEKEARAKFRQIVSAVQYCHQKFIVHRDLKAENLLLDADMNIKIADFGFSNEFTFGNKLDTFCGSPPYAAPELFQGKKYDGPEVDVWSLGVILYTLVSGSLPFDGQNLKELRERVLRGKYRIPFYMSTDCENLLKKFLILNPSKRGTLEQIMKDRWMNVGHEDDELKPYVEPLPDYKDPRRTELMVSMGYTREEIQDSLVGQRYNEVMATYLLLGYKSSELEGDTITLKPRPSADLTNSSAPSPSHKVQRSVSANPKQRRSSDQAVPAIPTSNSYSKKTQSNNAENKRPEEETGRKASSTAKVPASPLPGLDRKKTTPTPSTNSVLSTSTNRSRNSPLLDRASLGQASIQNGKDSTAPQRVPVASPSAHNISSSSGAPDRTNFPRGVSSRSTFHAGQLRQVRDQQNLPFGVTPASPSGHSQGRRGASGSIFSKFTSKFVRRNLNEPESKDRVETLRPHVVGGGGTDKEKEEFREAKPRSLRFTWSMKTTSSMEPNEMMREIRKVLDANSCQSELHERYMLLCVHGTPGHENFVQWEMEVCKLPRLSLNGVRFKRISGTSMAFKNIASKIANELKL

| activation of MARK2 (Fig. 4B) [fold] | activation of MARK2 by fraction 14 [fold] | Substance |
| --- | --- | --- |
| 10 |  | recombinant MARKK (His10-tagged at the N-terminus), expressed in Sf9 cells (from UniProt O88664 1-1001) (enzyme) |
|  | 10 | MARK-activating factor (MAF) purified from porcine brain |

From EP1514558A1
